According to US20240238445A1, “INHIBITORS AND USES THEREOF” (NEURACLE SCIENCE CO., LTD., priority 2021, published 2024):
Ends that are not written are not given here.

Key:
[1] = target: interaction between Fc conjugated LRRC4B (amino acids 453-576) protein fragment and FAM19A5 protein (Homo sapiens, UniProt Q7Z5A7); experiment: Competitive inhibition assay of chemical compounds, plate coated with Fc conjugated LRRC4B fragment (453-576); type: binding; details: for effect of increasing concentration on LRRC4B-FAM19A5 interaction (in words): increasing concentrations
Method: In particular, the following compounds were produced: (1) KB734, (2) KB761, (3) KB763, (4) KB1157, (5) KB1161, (6) KB1542, (7) KB1543, (8) KB2256, (9) KB2258, (10) KB2310, (11) KB2357, (12) KB2718, (13) KB2719, (14) KB3111, (15) KB3112, (16) KB3220, (17) KB3201, (18) KB3250, and (19) KB3251. Then, the ability of the above chemical compounds to inhibit the binding of LRRC4 protein family members to FAM19A5 protein was assessed using a competitive inhibition assay. Briefly, ELISA plates were coated with 100 nM of a Fc conjugated LRRC4B fragment (amino acids 453-576 of SEQ ID NO: 2; SEQ ID NO: 7). Then, recombinant FAM19A5 protein (1 ng/mL) was added to the plates in combination with one of the above chemical compounds (100 μM). Recombinant FAM19A5 protein alone (“CTRL”) or in combination with DMSO was used as control. The plates were incubated at 37° C. and then, the amount of FAM19A5 protein bound to the coated LRRC4B protein fragment was assessed using HRP-conjugated anti-FAM19A5 (1-65) antibody.
Next, to assess whether increasing the concentration of the chemical compounds could improve the inhibitory effect, increasing concentrations of KB734, KB2310, and KB2357 compounds were subjected to the same competitive inhibition assay described above.
To further assess the inhibitory effect of the KB2357 chemical compound on FAM19A5 protein and members of the LRRC4 protein family, the following derivatives of the KB2357 compound were synthesized as described earlier: (1) KB2304, (2) KB2305, (3) KB2308, (4) KB2309, (5) KB2314, (6) KB2315, (7) KB2324, (8) KB2325, (9) KB2328, (10) KB2329, (11) KB2336, (12) KB2337, (13) KB2350, (14) KB2356, (15) KB2358, (16) KB2359, (17) KB2369, (18) KB2372, and (19) KB2399. The derivative compounds were also tested in the competitive inhibition assay as described above.

[2] = target: hFc-fused hLRRC4B and FAM19A5 complex formation (Homo sapiens, UniProt Q7Z5A7); experiment: Competitive inhibition assay (IC50), plate coated with LRRC4B(453-576, TT/TT)-hFc; type: binding
Method: The in silico analysis provided in Example 9 highlighted that certain T12 and L13 double mutants might be important in improving the binding affinity of the polypeptides of the present disclosure to the FAM19A5 protein. Therefore, the ability of both the wild-type FB-21 peptide (which is the same as the FB-20 peptide described herein except that the FB-21 peptide additionally contains an alanine at the C-terminus) and several FB-21 mutants were tested for their inhibitor effect on hFc-fused hLRRC4B and FAM19A5 complex formation. Briefly, plate was coated with 100 nM of LRRC4B(453-576, TT/TT)-hFc and then 1 ng/ml of rFAM19A5 was incubated at 37° C. in the presence of increasing concentrations of the different FB-21 peptide fragments (0.03, 0.1, 0.3, 1, 3, 10, 30, 100, 300 and 1000 nM). The LRRC4B-bound FAM19A5 levels were measured using HRP-conjugated 1-65 antibody.

[3] = target: interaction between His-TEV LRRC4B and rFAM19A5 (Homo sapiens, UniProt Q7Z5A7); experiment: Competitive inhibition assay (IC50), plate coated with His-TEV LRRC4B; type: binding; details: Table 15; His-TEV LRRC4B 100 nM coat; peptide 0.3-10000 nM; read-out: IC50 (nM), Inhibition on Complex Formulation between LRRC4B protein and recombinant FAM19A5 protein (1 ng/ml)
Method: To further assess the inhibitory effect of the FB-21 mutants, the ability of additional FB-21 mutants described in Example 9 were tested for their ability to inhibit the interaction between FAM19A5 protein and LRRC4B protein. Briefly, plates were coated with 100 nM of His-TEV LRRC4B and then 1 ng/mL of rFAM19A5 was incubated at 37° C. in the presence of increasing concentrations of the FB-21 peptide fragments (0.3, 1, 3, 10, 30, 100, 300, 1000, 3000 and 10000 nM). The LRRC4B-bound FAM19A5 levels were measured using HRP-conjugated 1-65 SS01 antibody. As shown in FIG. 22B (see Table 15 for IC50), most (if not all) of the FB-21 mutants had improved ability in inhibiting the interaction between LRRC4B and recombinant FAM19A5 protein.
Next, to assess whether other properties of the polypeptides described herein can be improved (e.g., solubility, prevention of degradation from protease and peptidase, and in vivo administration), the following additional FB-21 peptide mutants were constructed and tested for their ability to inhibit the interaction between FAM19A5 protein and LRRC4B: (1) d-form FB-21 peptide (“dFB-21”), (2) d-form FB-21 peptide with juxta-membrane (JM) sequence (“dFB-JM-31”), (3) d-form FB-21 peptide with BBB penetrating sequence at each end of the sequence (“dFB-BBB-39”), and (4) d-form FB-21 mutant peptide with DY replacement and additional JM sequence (“dFB-DY-JM31”). The sequence for d-form FB-21 peptide is set forth in SEQ ID NO: 153 (nYTYFTTVTVETLETQPGEEa; wherein the lowercase amino acids represent D-form of the amino acid, and the uppercase amino acids represent L-form of the amino acid). The sequence for dFB-BBB-39 is set forth in SEQ ID NO: 154 (n[…]l; wherein the lowercase amino acids represent D-form of the amino acid, and the uppercase amino acids represent L-form of the amino acid). The sequence for dFB-JM-31 is set forth in SEQ ID NO: 155 (n[…]a; wherein the lowercase amino acids represent D-form of the amino acid, and the uppercase amino acids represent L-form of the amino acid). The sequence for dFB-DY-JM31 is set forth in SEQ ID NO: 156 (n[…]a; wherein the lowercase amino acids represent D-form of the amino acid, and the uppercase amino acids represent L-form of the amino acid). The overall experimental methods were the same as those described immediately above.

FAM19A5 protein [4] = target: T1, FAM19A5 protein (Homo sapiens, UniProt Q7Z5A7); experiment: competitive inhibition ELISA; competitor: coated LRRC4B(36-576)-hFc
FAM19A5 protein [5] = target: T1, FAM19A5 protein; experiment: competitive inhibition ELISA; competitor: coated LRRC4B(453-576)-hFc
FAM19A5 protein [6] = target: T1, FAM19A5 protein; experiment: competitive inhibition ELISA, 20 nM peptide, rFAM19A5 5 ng/mL; competitor: coated LRRC4B(36-576)-hFc
FAM19A5 protein [7] = target: T1, FAM19A5 protein; experiment: as above; remark: listed apart in the source
FAM19A5 protein [8] = target: T1, FAM19A5 protein; experiment: competitive inhibition ELISA, 20 nM peptide, rFAM19A5 1 ng/mL; competitor: coated LRRC4B(453-576)-hFc
FAM19A5 protein [9] = target: T1, FAM19A5 protein; experiment: as above; remark: listed apart in the source

interaction between Fc conjugated LRRC4B (amino acids 453-576) protein fragment and FAM19A5 protein, sequence (Q7Z5A7 44-132): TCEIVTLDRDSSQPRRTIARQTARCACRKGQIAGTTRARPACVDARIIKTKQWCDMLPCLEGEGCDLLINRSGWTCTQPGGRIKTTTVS

| Molecule | effect of increasing concentration on LRRC4B-FAM19A5 interaction (in words) [1] | Inhibition rate (%) (FAM19A5 protein [6]) | Inhibition rate (%) (FAM19A5 protein [8]) | also measured |
| --- | --- | --- | --- | --- |
| CCCCCC(O)/C=C\c1ccc(O)c(OC)c1 (centres unmarked) [KB2356, (Z)-4-(3-Hydroxyoct-1-en-1-yl)-2-methoxyphenol] | able to reduce the interaction in a dose-dependent manner | – | – | – |
| CCCCC[C@@H](O)C#Cc1ccc(O)c(OC)c1 [KB2357, (R)-4-(3-Hydroxyoct-1-yn-1-yl)-2-methoxyphenol] | greater reduction in the interaction | – | – | reduction of interaction between FAM19A5 and the coated LRRC4B protein fragment compared to the controls ([1]; 100 μM compound, FAM19A5 1 ng/mL): about 10% |
| CCCCC[C@H](O)C#Cc1ccc(O)c(OC)c1 [KB2358, (S)-4-(3-Hydroxyoct-1-yn-1-yl)-2-methoxyphenol] | able to reduce the interaction in a dose-dependent manner | – | – | – |
| GYTYFTTVTVEWYETQPGEEA [FB-21 (W12Y13)] | – | – | – | IC50 ([2]; Table 14, LRRC4B(453-576, TT/TT)-hFc 100 nM coat, peptide 0.03-1000 nM, read-out: IC50 (nM), Inhibition on Complex Formulation between human LRRC4B protein and recombinant FAM19A5 protein (1 ng/mL)): 4.1 nM; increase in ability to dissociate the LRRC4B-FAM19A5 complex compared with wild-type FB-21 ([2]; from IC50 of Table 14): 2.9 folds; IC50 [3]: 46.7 nM |
| GYTYFTTVTVETLETQPGEE [FB-20] | – | 77 | 63.2 | Inhibition rate (%) (FAM19A5 protein [4]): 77%; Inhibition rate (%) (FAM19A5 protein [5]): 63.2%; Inhibition rate (%) (FAM19A5 protein [7]): 84.3%; Inhibition rate (%) (FAM19A5 protein [9]): 62% |
| NFSYFSTVTVETMEPSQDERTTR [FBC4C-23] | – | 65.7 | 40.4 | – |
| NYSFFTTVTVETTEISPEDTTRK [FBC4-23] | – | 64.1 | 40.4 | – |
